According to patent publication US20100159475:

What was measured:
[1] = test system: T1, Fluoresceinyl-DLDVPIPGRFDRRVpSVAAE (phosphorylated, fluorescein-tagged RII peptide)
T1 sequence: DLDVPIPGRFDRRVSVAAE

Recombinant calcineurin
amount of dephosphorylated peptide in the unbound fraction after titanium oxide (mass spectrometry) [1]: 30-fold increase in the amount of dephosphorylated peptide in the unbound fraction with the addition of recombinant calcineurin
dephosphorylation of the peptide (fluorimetric calcineurin assay) [1]: Calcineurin in normal buffer resulted in dephosphorylation of the peptide in a dose-dependent manner
relative amount of dephosphorylated to phosphorylated peptide (mass spectrometry) [1]: recombinant calcineurin stimulated a dose-responsive increase in the relative amount of dephosphorylated to phosphorylated peptide
dephosphorylation by 0.2 ng calcineurin (fluorimetric calcineurin assay) (autoinhibitory peptide): Dephosphorylation by 0.2 ng calcineurin was significantly reduced (ANOVA) by each of these conditions
